Data on two molecules can be found in publication PMC11969672 (Nucleic Acids Research, 2025).

The series “negative-staining EM” deals with the molecule itself. As to the kind of experiment: negative-staining EM.
Series [1] addresses T1, L3MBTL3–SAM (residues 705–773) (UniProt Q96JM7 705-773).
T1 sequence (looked up): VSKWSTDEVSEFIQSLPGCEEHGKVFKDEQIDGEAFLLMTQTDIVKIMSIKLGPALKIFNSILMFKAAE
As to the kind of experiment: SEC.

B1: wild-type full-length SAMD1 (natural protein, human, UniProt Q6SPF0 1-538, looked up)
chain: MAGPPALPPPETAAAATTAAAASSSAASPHYQEWILDTIDSLRSRKARPDLERICRMVRRRHGPEPERTRAELEKLIQQRAVLRVSYKGSISYRNAARVQPPRRGATPPAPPRAPRGAPAAAAAAAPPPTPAPPPPPAPVAAAAPARAPRAAAAAATAPPSPGPAQPGPRAQRAAPLAAPPPAPAAPPAVAPPAGPRRAPPPAVAAREPPLPPPPQPPAPPQQQQPPPPQPQPPPEGGAVRAGGAARPVSLREVVRYLGGSGGAGGRLTRGRVQGLLEEEAAARGRLERTRLGALALPRGDRPGRAPPAASARPSRSKRGGEERVLEKEEEEDDDEDEDEEDDVSEGSEVPESDRPAGAQHHQLNGERGPQSAKERVKEWTPCGPHQGQDEGRGPAPGSGTRQVFSMAAMNKEGGTASVATGPDSPSPVPLPPGKPALPGADGTPFGCPPGRKEKPSDPVEWTVMDVVEYFTEAGFPEQATAFQEQEIDGKSLLLMQRTDVLTGLSIRLGPALKIYEHHIKVLQQGHFEDDDPDGFLG
For B1, the binding result in “negative-staining EM” is listed as “binds”.

B2: SAMD1–SAM (residues 459–523 with L495R mutation) (domain or fragment, human, UniProt Q6SPF0 459-523, looked up)
chain: PVEWTVMDVVEYFTEAGFPEQATAFQEQEIDGKSLLRMQRTDVLTGLSIRLGPALKIYEHHIKVL
For the molecule B2, the binding result in series [1] is “binds”.
